PMC2912147 (Neuron, 2008)

Target: Flag-tagged full length HDAC1 (UniProt Q13547 1-482)
Assay: co-IP

Chain of Flag-tagged full length HDAC1 (Q13547 whole entry): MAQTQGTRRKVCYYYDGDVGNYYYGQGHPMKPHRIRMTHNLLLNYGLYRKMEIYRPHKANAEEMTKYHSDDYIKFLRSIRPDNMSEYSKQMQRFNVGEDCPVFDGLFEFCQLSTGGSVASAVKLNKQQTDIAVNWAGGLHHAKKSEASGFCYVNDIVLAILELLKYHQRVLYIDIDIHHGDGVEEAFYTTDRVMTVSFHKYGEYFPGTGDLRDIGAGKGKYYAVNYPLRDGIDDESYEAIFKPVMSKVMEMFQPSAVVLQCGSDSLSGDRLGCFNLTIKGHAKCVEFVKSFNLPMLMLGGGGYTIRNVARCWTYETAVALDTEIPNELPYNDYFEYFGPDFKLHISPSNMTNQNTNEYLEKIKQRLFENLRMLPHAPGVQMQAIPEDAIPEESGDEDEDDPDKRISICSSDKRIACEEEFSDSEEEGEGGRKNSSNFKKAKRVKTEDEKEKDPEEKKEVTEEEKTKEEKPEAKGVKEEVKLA

B1: GFP-p25 (full length p25, overexpressed in HEK293T cells) (domain or fragment)
chain: not shown
fold interaction against p35: > 12 fold
